The record followed here is patent US20230189818A1, “RNA-BASED CONTROL OF BOTRYTIS” (priority 2021, published 2023).

For one data set, the system named is Botrytis cinerea conidia. The data set can be described thus: In vitro liquid-based assay (fungal biomass, 96-well plates, Cytation 5). The format is cell-based. The conditions noted are these: co-incubated with conidia for three days, vs untreated control. Here is the method: Fungal culture. The Botrytis cinerea was plated each week the culture onto Malt Extract Agar (MEA) from long-term storage on silica stored at 4° C. Three pellets of silica were added to the center of a MEA agar plate and grown at room temperature without parafilm/tape seal for 10-14 days before use; a culture 12 days old was typically used.
Spore and media preparation. A pure culture of B. cinerea was flooded with a 0.01% Triton x-100 solution and conidia scraped free with a sterile hockey stick. The suspension was transferred to two, 1.5 mL centrifuge tubes and centrifuged at 8000 rpm for two minutes. The supernatant was discarded, pelleted spores washed twice with sterile water, then resuspended in sterile water. Conidia were quantified using a hemacytometer and diluted to a final concentration of 5000 conidia/mL stock. A stock solution of 1.25× minimal media was prepared for the assay setup using the components below. Once the stock solution was made, the pH was adjusted to 6.0 using NaOH or KOH, then filter sterilized through a 0.2 um filter tower and vacuum pump and stored at 4° C. The Kao & Michayluk Vitamins (100×) is a filter sterilized stock solution. The stock contains vitamins and amino acids as described by Kao & Michayluk. After filter sterilization, 20 mg of 4-Aminobenzoic acid in 100 ml of solution was added.
Experimental setup. Screening assays were setup in 96-well plates with conidia co-incubated with treatments (controls and dsRNAs) for three days before determining fungal biomass. Each treatment was replicated eight times within a single plate. In each well consisted of 12.5 μl of conidia suspension, 25 μl of the treatment, 12.5 μl of sterile deionized water, and 200 μl of minimal media. Each plate was covered with a breath right film and placed in the percival growth chamber at 23° C. on the shaking platform set to 120 RPM with 24-hour lighting. Plates were incubated for 72 hours before determining fungal growth.
Reading assay plate. Fungal biomass was determined by reading plates with the Cytation 5 machine. The program was set to compile 8 photo slices per well under brightfield microscopy with a 2.5× lens to measure biomass.
Data analysis. Analysis will automatically run on Cytation5 to determine final biomass.
Results are shown in Table 1B representing the average reduction in biomass vs. control for tested sequences across several runs described above.

Data set [1] has as its system Botrytis cinerea isolate (B05.10). The data set is described as follows: Detached leaf assay (tomato leaflets, lesion size). The format is in vivo. To be noted: five days post inoculation, vs untreated inoculated control. Here is the method: Plant tissue. Tomato plants, variety Brandywine, were grown in the greenhouse for 3 weeks before harvesting the first true leaves for assays. Nodes 2-4 were prioritized for harvest and only lateral leaflets were used for assays. Leaflets of approximately the same size were used each week and were randomized among treatments. Detached leaflets were immediately brought into the lab for treatment and used within 4 hours of harvest. Detached leaflets were kept at 4° C. until they were treated and placed onto a 1% water agar medium for incubation.
Fungal culture. A Botrytis cinerea isolate (B05.10) was preserved on silica for long-term storage and pulled from these tubes stored at 4° C. for growth on a nutritive medium. Three pellets of silica were added to the center of a Malt Extract Agar (MEA) agar plate and grown at room temperature without parafilm/tape seal for ˜14 days, or until abundant conidia formation, before use.
Treatment of leaflets. Leaflets were treated 24 hours before inoculation and applied using an atomizer to get a fine mist of small droplets entirely covering the leaflet. Silwet L-77 was used as a spreader and added for a 0.03% final concentration (Silwet L-77 brand Phyto Technology Laboratories, S7777 Lot #14D7777001 F). The inoculated control was sprayed with the same volume of sterile DI water with Silwet L-77 in the absence of fungicide or experimental material. Leaflets were spray treated by laying them on a paper towel and holding the atomizer ˜6″ away from the leaflet for applications. Treated leaves were placed on a 1% water agar (10 g Bacto Agar, Difco, in 1 L deionized water, sterilized for 30 minutes at 121° C. and poured when reached a temp of 55° C. into 100×20 mm Petri dishes), with lids of the Petri dishes placed back on before putting Petri dishes under plastic bags to maintain humidity before inoculation the following day. Petri dishes of treated leaflets were left on the lab counter until the following day. Each treatment was replicated ten times with each replicate being a single treated leaflet with two inoculation sites, one on each side of the leaf midvein.
Inoculation. The conidial suspension was prepared by pouring a 7% white grape juice solution onto the culture plate, then scraping the plate with a sterile spatula to dislodge the spores and mycelia. The grape juice solution was prepared by mixing Welch's brand organic white grape juice into sterile deionized water. After dislodging the spores and mycelia of the culture, the suspension was poured through two layers of cheesecloth to remove fungal mycelia and catch the conidial suspension in a clean 50 mL conical tube. Approximately 3 uL of TWEEN 20 was added to conidial suspension to prevent sticking to conical tube. The spore concentration was determined using a Neubauer Improved hemocytometer and inoculum was diluted with more 7% grape juice until a spore concentration of 1×10^5 conidia/mL was reached. Inoculum was used to inoculate host tissue within 2 hours of preparation. Each tomato leaflet was inoculated twice, with inoculation sites placed one per side of the leaflet midvein. A 10 μL volume of spore suspension was placed at each inoculation site using a repeater pipette. Special care was taken not to touch the tip to leaflet surface to avoid contamination between treatments.
Incubation. Petri dishes were placed on lunch trays 6 plates high and moved to an incubator. The incubator was humidity controlled and holds at ˜75% relative humidity. The incubator was kept on 12/12 light/dark days and is set to a temperature of 23° C.
Rating. Measurements were taken at five days post inoculation (DPI). Each lesion that developed was measured using electronic calipers in 2 directions perpendicular to each other to help determine lesion diameter.
Data analysis. Data was analyzed using the SAS JMP statistical program (version 13.2.1) with comparisons made to the untreated, inoculated control. […]

B1: GS2589: dsRNA trigger targeting B. cinerea Bcsec15 (XM_024692064.1); trigger SEQ ID NO 49, RNA 53, reverse complement 57 (nucleic acid, listed as Botrytis cinerea)
sense: GGUAUGUUCCGGACAGACCGAAAGAAGAAUACACAUUCCCCGGUGUAUUACCAUUCUCCCAGAUGUACCCAAUGUGCUGUAUAGAUAUCAGAAAUUUCCUGAAUCGAUUCUACUUCAUAAUGGAUGAUCAUUUUCAACAGCCAAACAUUAUUGAUGAGACACUUAAGAAGUCGAUAGAUGAGCUUCUGUCUGAGGAUAUUU
antisense: AAAUAUCCUCAGACAGAAGCUCAUCUAUCGACUUCUUAAGUGUCUCAUCAAUAAUGUUUGGCUGUUGAAAAUGAUCAUCCAUUAUGAAGUAGAAUCGAUUCAGGAAAUUUCUGAUAUCUAUACAGCACAUUGGGUACAUCUGGGAGAAUGGUAAUACACCGGGGAAUGUGUAUUCUUCUUUCGGUCUGUCCGGAACAUACC
Take B1: the “Average % Reduction in Biomass” value in the data set with Botrytis cinerea conidia (25 ppm dsRNA) is 20%; with Botrytis cinerea conidia (150 ppm dsRNA), 39%.

B2: GS2640: dsRNA trigger targeting B. cinerea Bcsec15 (XM_024692064.1); trigger SEQ ID NO 50, RNA 54, reverse complement 58 (nucleic acid, listed as Botrytis cinerea)
sense: AAAUUCAGCACAGAUUUUCAACAGAUUGUGUCUACCGAUGAAUACAUGCCUAUGCCUGUCAAUAGCGAAGAAGACUUUGAUAAAAUCAUUCAAGUCAGUUGGUAUGUUCCGGACAGACCGAAAGAAGAAUACACAUUCCCCGGUGUAUUACCAUUCUCCCAGAUGUACCCAAUGUGCUGUAUAGAUAUCAGAAAUUUCCUGAAUCGAUUCUACUUCAUAAUGGAUGAUCAUUUUCAACAGCCAAACAUUAUUGAUGAGACACUUAAGAAGUCGAUAGAUGAGCUUCUGUCUGAGGAUAUUU
antisense: AAAUAUCCUCAGACAGAAGCUCAUCUAUCGACUUCUUAAGUGUCUCAUCAAUAAUGUUUGGCUGUUGAAAAUGAUCAUCCAUUAUGAAGUAGAAUCGAUUCAGGAAAUUUCUGAUAUCUAUACAGCACAUUGGGUACAUCUGGGAGAAUGGUAAUACACCGGGGAAUGUGUAUUCUUCUUUCGGUCUGUCCGGAACAUACCAACUGACUUGAAUGAUUUUAUCAAAGUCUUCUUCGCUAUUGACAGGCAUAGGCAUGUAUUCAUCGGUAGACACAAUCUGUUGAAAAUCUGUGCUGAAUUU
In the case of B2, the “Average % Reduction in Lesion Size” value in data set [1] (30 ppm) was 19.63%; in data set [1] (50 ppm) it was 22.76%. Further, the “Average % Reduction in Biomass” value in the data set with Botrytis cinerea conidia (25 ppm dsRNA) is 24%; in the data set on Botrytis cinerea conidia (150 ppm dsRNA), 54%.

B3: GS2641: dsRNA trigger targeting B. cinerea Bcsec15 (XM_024692064.1); trigger SEQ ID NO 51, RNA 55, reverse complement 59 (nucleic acid, listed as Botrytis cinerea)
sense: CAAACAAUGGAGGGUUGGGGAUAUUCAGUUGCCAUAUUAGAUGCUUAUGUGCUUAAGCUUUUCUAUAGAUAUGCUGAUUUGUUAAAACGGAAAUUCAGCACAGAUUUUCAACAGAUUGUGUCUACCGAUGAAUACAUGCCUAUGCCUGUCAAUAGCGAAGAAGACUUUGAUAAAAUCAUUCAAGUCAGUUGGUAUGUUCCGGACAGACCGAAAGAAGAAUACACAUUCCCCGGUGUAUUACCAUUCUCCCAGAUGUACCCAAUGUGCUGUAUAGAUAUCAGAAAUUUCCUGAAUCGAUUCUACUUCAUAAUGGAUGAUCAUUUUCAACAGCCAAACAUUAUUGAUGAGACACUUAAGAAGUCGAUAGAUGAGCUUCUGUCUGAGGAUAUUU
antisense: AAAUAUCCUCAGACAGAAGCUCAUCUAUCGACUUCUUAAGUGUCUCAUCAAUAAUGUUUGGCUGUUGAAAAUGAUCAUCCAUUAUGAAGUAGAAUCGAUUCAGGAAAUUUCUGAUAUCUAUACAGCACAUUGGGUACAUCUGGGAGAAUGGUAAUACACCGGGGAAUGUGUAUUCUUCUUUCGGUCUGUCCGGAACAUACCAACUGACUUGAAUGAUUUUAUCAAAGUCUUCUUCGCUAUUGACAGGCAUAGGCAUGUAUUCAUCGGUAGACACAAUCUGUUGAAAAUCUGUGCUGAAUUUCCGUUUUAACAAAUCAGCAUAUCUAUAGAAAAGCUUAAGCACAUAAGCAUCUAAUAUGGCAACUGAAUAUCCCCAACCCUCCAUUGUUUG
As to B3, the “Average % Reduction in Lesion Size” value in data set [1] (30 ppm) stood at 15.75%; in data set [1] (50 ppm), 30.49%. Also, the “Average % Reduction in Biomass” value in the data set with Botrytis cinerea conidia (25 ppm dsRNA) stood at 14%; in the data set with Botrytis cinerea conidia (150 ppm dsRNA) it was 37%.

B4: GS2291: dsRNA trigger targeting B. cinerea Bcgpi2 (XM_024693470.1); trigger SEQ ID NO 22, RNA 34, reverse complement 46 (nucleic acid, listed as Botrytis cinerea)
sense: CUGUCAACCAAUUGCGCAUGACAAAUGGAGAUGCUGGACGAUUAAGAAGUAGAGGAAGACAUGCUGAUAGAACGAAGAGUAGCACCAGAAGACGGAAAACUACUUGGAAAAAGCUGCUAUGGGUGAAGCAAUCAUAUCCAGACAAUUACACGGAUCAAGAUACAUUUCUCGAACAUCUGCAGCGAAAUCCACGUCUUCAGCCUUACGACUUUUGGCCAUUGGUAGCAGAUUCCACGGUUAUAGUACAACACGUUUGUUCGGUCAUUAUAUUCAUUGUUUCUUUCGUUGGGAUAUAUGAUAAACAUGUCUCGCCAGUUUCUGUGGUUGGCUGGGGCUCUAUUGCUACCUUUUUGGGGUGGGUGUUAUGGGAUUUAUGGGUGGGACAGGAAGAAAGUACUCGUCCAGCAUUUCCACCACCGCAGCCUUUCUCUCACAGUGUAUCUGCAACAAGUUCAACACCAAACCUAUUGGCAACAGCUGCAAGUGGGCCAAGGCAAUCCUACUCGAUGUCAACAACAUCUCUUCAAUCUACAGCCUCGAAUCUAACCCAACCACCUCCAAUACGACCGGUUUAUACACCACAUAAUU
antisense: AAUUAUGUGGUGUAUAAACCGGUCGUAUUGGAGGUGGUUGGGUUAGAUUCGAGGCUGUAGAUUGAAGAGAUGUUGUUGACAUCGAGUAGGAUUGCCUUGGCCCACUUGCAGCUGUUGCCAAUAGGUUUGGUGUUGAACUUGUUGCAGAUACACUGUGAGAGAAAGGCUGCGGUGGUGGAAAUGCUGGACGAGUACUUUCUUCCUGUCCCACCCAUAAAUCCCAUAACACCCACCCCAAAAAGGUAGCAAUAGAGCCCCAGCCAACCACAGAAACUGGCGAGACAUGUUUAUCAUAUAUCCCAACGAAAGAAACAAUGAAUAUAAUGACCGAACAAACGUGUUGUACUAUAACCGUGGAAUCUGCUACCAAUGGCCAAAAGUCGUAAGGCUGAAGACGUGGAUUUCGCUGCAGAUGUUCGAGAAAUGUAUCUUGAUCCGUGUAAUUGUCUGGAUAUGAUUGCUUCACCCAUAGCAGCUUUUUCCAAGUAGUUUUCCGUCUUCUGGUGCUACUCUUCGUUCUAUCAGCAUGUCUUCCUCUACUUCUUAAUCGUCCAGCAUCUCCAUUUGUCAUGCGCAAUUGGUUGACAG
Turning to B4, the “Average % Reduction in Lesion Size” value in data set [1] (30 ppm) is recorded as 28.77%; in data set [1] (50 ppm), 46.11%. The “Average % Reduction in Biomass” value in the data set on Botrytis cinerea conidia (25 ppm dsRNA) turned out to be 5%; in the data set on Botrytis cinerea conidia (150 ppm dsRNA), 24%.
